Article doi:10.1101/591263

Test system: dSpCas9-GFP (Streptococcus pyogenes)
Experiment: MST
Conditions: MST: 20 mM HEPES pH 7.5, 150 mM KCl, 1 mM DTT, 10 mM MgCl2

Row | Substance | Kd [nM]
1 | VEGFA3 off-target (30 bp) with VEGFA3 sgRNA | 142
2 | EMX1 target (30 bp) with EMX1 sgRNA | 10.9
3 | EMX1 off-target (30 bp) with EMX1 sgRNA | 27.2
4 | VEGFA3 target (30 bp) with VEGFA3 sgRNA | 49.6
